The data set concerns the target GST-IbRAP2.4 (Ipomoea batatas (Sushu 16), UniProt A0A3S6I5T9 1-294). Description: EMSA; dose-dependent, 0.5-4 ug protein; unlabeled probe competes; 200 mM HEPES, 50 mM KCl, 5 mM DTT, 1 mM EDTA, 20 pmol poly dI-dC, 30 uL (so in the source), pH not stated; room temperature 30 min; 8% native PAGE. Particulars: protein: recombinant; tags: GST; label: 32P (T4 PNK, gamma-ATP); blunt (annealed oligonucleotide set).

Consider two molecules from PMC8826056, “Different Functions of IbRAP2.4, a Drought-Responsive AP2/ERF Transcription Factor, in Regulating Root Development Between Arabidopsis and Sweetpotato”.

Chain of GST-IbRAP2.4 (A0A3S6I5T9 entry or part of it): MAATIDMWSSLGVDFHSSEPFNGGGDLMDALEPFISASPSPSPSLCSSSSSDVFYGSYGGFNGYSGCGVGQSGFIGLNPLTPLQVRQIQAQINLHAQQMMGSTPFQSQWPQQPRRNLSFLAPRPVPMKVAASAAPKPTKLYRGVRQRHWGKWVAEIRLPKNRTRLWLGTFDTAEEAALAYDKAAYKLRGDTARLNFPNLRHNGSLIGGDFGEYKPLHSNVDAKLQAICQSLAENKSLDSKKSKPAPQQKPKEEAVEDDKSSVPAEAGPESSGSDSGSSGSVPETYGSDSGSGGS

B1: GCC-box probe (dsDNA)
DNA 1: TTCATAAGAGCCGCCACTCATAAGAGCCGCCACT
DNA 2: AGTGGCGGCTCTTATGAGTGGCGGCTCTTATGAA
Take B1: the binding result was “binds”.

B2: DRE probe (dsDNA)
DNA 1: TTGATACTACCGACATGAGTTGATACTACCGACATGAGTT
DNA 2: AACTCATGTCGGTAGTATCAACTCATGTCGGTAGTATCAA
Regarding B2, the binding result is listed as “binds”.
